Measured values: US9833497B2, “Human originated EGF domain proteins and use of the same” (CHENGDU SOURCEBIO LIMITED-LIABILITY COMPANY, priority 2013, dated 2017)

Experiments:
Assay type in all cases: cell-based
[1] = system: E. coli DH5α; assay: Antibacterial activity: MIC and growth curve against E. coli DH5α in 96-well plate; conditions: minimal inhibitory concentration against E. coli DH5α; 96-well plate, 5×10^5 CFU/mL, 37° C., judged after 8 h
Method: 1. E. coli DH5α was exemplified. E. coli DH5α was streaked and cultured on LB solid medium. Then, a typical clone was picked and inoculated into common LB liquid medium, cultured at 37° C. with shaking at 185 rpm until the logarithmic growth phase was reached (OD600 of about 0.5). The bacterial culture was centrifuged at 4000×g for 3 min, the supernatant was discarded, and the thalli were resuspended with fresh LB medium.
2. The above-mentioned bacterial suspension was diluted and inoculated into a 96-well plate with the total volume of 100 μL per well and a bacterial count of 5×10^5 CFU/mL.
3. The recombinant protein hF VII-EGF1 was added to the above-mentioned wells with the final protein concentration in the well of the highest protein concentration being 50 μg/mL. Basing on this final concentration, a two-fold serial dilution was performed till a protein concentration gradient consisting of 50, 25, and 12.5 μg/mL was set up. Three parallel wells were set up for each concentration in the gradient.
4. The above-mentioned 96-well plate was placed and cultured at 37° C. in shaking incubator shaking at 175 rpm. Samples were taken every 30 min, the absorbance values were determined at 600 nm wavelength under a ultra violet spectrophotometer, and an inhibition curve was plotted. […] The minimal inhibitory concentration MIC is defined as the lowest concentration of the recombinant protein at which there is no growth of the bacteria.
According to the experimental procedures in Example 14, the minimal inhibitory concentrations (MIC, μg/mL) of the other human-originated EGF domain proteins (PRT2 to PRT1498 in Table 1) for E. coli DH5α were determined.

[2] = system: E. coli BL21; assay: MIC against Gram-negative bacteria: E. coli BL21; conditions: 5×10^5 CFU/mL; for MIC (μg/mL) E. coli BL21: 10 h cultivation at 37° C.
Method: (§1) 1. Gram-negative bacteria, such as E. coli BL21, Pseudomonas aeruginosa, Klebsiella pneumonia, Enterobacter cloacae, Aeromonas hydrophila, Citrobacter diversus, Moraxella catarrhalis, Proteus mirabilis, Proteus vulgaris, Serratia marcescens, etc were streaked on solid LB medium and cultured respectively. Then, typical clones were picked, inoculated into common liquid LB medium respectively, and cultured at 37° C. with shaking at 185 rpm until the McFarland specific turbidity was 0.5. The bacterial culture of each of Gram-negative bacteria was centrifuged at 4000×g for 3 min, the supernatant was discarded, and the thalli were resuspended with fresh LB medium.
(§2) 2. The above-mentioned bacterial suspensions were diluted and inoculated into 96-well plates with the final concentration of the bacterial suspension being 5×10^5 CFU/mL per well.
(§3) 3. Each of the purified human-originated EGF domain proteins (PRT1 to PRT1498 in Table 1) was added to each of the above wells and subjected to two-fold serial dilution in concentration. Three parallel wells were set up for each concentration in the gradient.
(§4) 4. The above-mentioned 96-well plates were placed and cultured at 37° C. in shaking incubator shaking at 175 rpm. […] The minimal inhibitory concentration MIC is defined as the lowest concentration of the recombinant protein at which there is no growth of the bacteria.

[3] = system: Pseudomonas aeruginosa; assay: MIC against Gram-negative bacteria: Pseudomonas aeruginosa; conditions: 5×10^5 CFU/mL; for MIC (μg/mL) P. aeruginosa: 10 h cultivation at 37° C.
Method: as §1, §2, §3, §4

[4] = system: Klebsiella pneumonia; assay: MIC against Gram-negative bacteria: Klebsiella pneumonia; conditions: 5×10^5 CFU/mL; for MIC (μg/mL) K. pneumonia: 10 h cultivation at 37° C.
Method: as §1, §2, §3, §4

[5] = system: Enterobacter cloacae; assay: MIC against Gram-negative bacteria: Enterobacter cloacae; conditions: 5×10^5 CFU/mL; for MIC (μg/mL) E. cloacae: 10 h cultivation at 37° C.
Method: as §1, §2, §3, §4

[6] = system: Aeromonas hydrophila; assay: MIC against Gram-negative bacteria: Aeromonas hydrophila; conditions: 5×10^5 CFU/mL; for MIC (μg/mL) A. hydrophila: 10 h cultivation at 37° C.
Method: as §1, §2, §3, §4

[7] = system: Citrobacter diversus; assay: MIC against Gram-negative bacteria: Citrobacter diversus; conditions: 5×10^5 CFU/mL; for MIC (μg/mL) C. diversus: 10 h cultivation at 37° C.
Method: as §1, §2, §3, §4

[8] = system: Moraxella catarrhalis; assay: MIC against Gram-negative bacteria: Moraxella catarrhalis; conditions: 5×10^5 CFU/mL; for MIC (μg/mL) M. catarrhalis: 10 h cultivation at 37° C.
Method: as §1, §2, §3, §4

[9] = system: Proteus mirabilis; assay: MIC against Gram-negative bacteria: Proteus mirabilis; conditions: 5×10^5 CFU/mL; for MIC (μg/mL) P. mirabilis: 10 h cultivation at 37° C.
Method: as §1, §2, §3, §4

[10] = system: Proteus vulgaris; assay: MIC against Gram-negative bacteria: Proteus vulgaris; conditions: 5×10^5 CFU/mL; for MIC (μg/mL) P. vulgaris: 10 h cultivation at 37° C.
Method: as §1, §2, §3, §4

[11] = system: Serratia marcescens; assay: MIC against Gram-negative bacteria: Serratia marcescens; conditions: 5×10^5 CFU/mL; for MIC (μg/mL) S. marcescens: 10 h cultivation at 37° C.
Method: as §1, §2, §3, §4

B1: PRT845 (protein, listed as Homo sapiens)
chain: CQCNGHADTCNEQDGTGCPCQNNTETGTCQGSSPSDRRDCYKYQCAKCRESFHGSPLGGQQCYR
[1]
  MIC: 25 µg/mL
[2]
  MIC (μg/mL) E. coli BL21: 12.5 µg/mL
[3]
  MIC (μg/mL) P. aeruginosa: 25 µg/mL
[4]
  MIC (μg/mL) K. pneumonia: 25 µg/mL
[5]
  MIC (μg/mL) E. cloacae: 12.5 µg/mL
[6]
  MIC (μg/mL) A. hydrophila: 25 µg/mL
[7]
  MIC (μg/mL) C. diversus: 12.5 µg/mL
[8]
  MIC (μg/mL) M. catarrhalis: 25 µg/mL
[9]
  MIC (μg/mL) P. mirabilis: 12.5 µg/mL
[10]
  MIC (μg/mL) P. vulgaris: 12.5 µg/mL
[11]
  MIC (μg/mL) S. marcescens: 50 µg/mL

B2: PRT598 (protein, listed as Homo sapiens)
chain: CSCNSHSSRCHFDMTTYLASGGLSGGVCEDCQHNTEGQHCDRCRPLFYRDPLKTISDPYACIP
[1]
  MIC: 25 µg/mL
[2]; 96-well plate, 37° C., 10 h
  MIC E. coli BL21: 50 µg/mL
[3]; 96-well plate, 37° C., 10 h
  MIC P. aeruginosa: 12.5 µg/mL
[4]; 96-well plate, 37° C., 10 h
  MIC K. pneumonia: 50 µg/mL
[5]; 96-well plate, 37° C., 10 h
  MIC E. cloacae: 12.5 µg/mL
[6]; 96-well plate, 37° C., 10 h
  MIC A. hydrophila: 25 µg/mL
[7]; 96-well plate, 37° C., 10 h
  MIC C. diversus: 50 µg/mL
[8]; 96-well plate, 37° C., 10 h
  MIC M. catarrhalis: 25 µg/mL
[9]; 96-well plate, 37° C., 10 h
  MIC P. mirabilis: 12.5 µg/mL
[10]; 96-well plate, 37° C., 10 h
  MIC P. vulgaris: 50 µg/mL
[11]; 96-well plate, 37° C., 10 h
  MIC S. marcescens: 25 µg/mL

B3: PRT864 (protein, listed as Homo sapiens)
chain: CKCNGHADTCHFDVNVWEASGNRSGGVCDDCQHNTEGQYCQRCKPGFYRDLRRPFSAPDACKP
[1]
  MIC: 12.5 µg/mL
[2]
  MIC (μg/mL) E. coli BL21: 12.5 µg/mL
[3]
  MIC (μg/mL) P. aeruginosa: 12.5 µg/mL
[4]
  MIC (μg/mL) K. pneumonia: 25 µg/mL
[5]
  MIC (μg/mL) E. cloacae: 50 µg/mL
[6]
  MIC (μg/mL) A. hydrophila: 25 µg/mL
[7]
  MIC (μg/mL) C. diversus: 12.5 µg/mL
[8]
  MIC (μg/mL) M. catarrhalis: 25 µg/mL
[9]
  MIC (μg/mL) P. mirabilis: 50 µg/mL
[10]
  MIC (μg/mL) P. vulgaris: 12.5 µg/mL
[11]
  MIC (μg/mL) S. marcescens: 50 µg/mL

B4: PRT593 (protein, listed as Homo sapiens)
chain: CFCNGHASECRPMQKMRGDVFSPPGMVHGQCVCQHNTDGPNCERCKDFFQDAPWRPAADLQDNACRS
[1]
  MIC: 25 µg/mL
[2]; 96-well plate, 37° C., 10 h
  MIC against E. coli BL21: 50 µg/mL
[3]; 96-well plate, 37° C., 10 h
  MIC against P. aeruginosa: 25 µg/mL
[4]; 96-well plate, 37° C., 10 h
  MIC against K. pneumonia: 12.5 µg/mL
[5]; 96-well plate, 37° C., 10 h
  MIC against E. cloacae: 25 µg/mL
[6]; 96-well plate, 37° C., 10 h
  MIC against A. hydrophila: 50 µg/mL
[7]; 96-well plate, 37° C., 10 h
  MIC against C. diversus: 25 µg/mL
[8]; 96-well plate, 37° C., 10 h
  MIC against M. catarrhalis: 12.5 µg/mL
[9]; 96-well plate, 37° C., 10 h
  MIC against P. mirabilis: 25 µg/mL
[10]; 96-well plate, 37° C., 10 h
  MIC against P. vulgaris: 50 µg/mL
[11]; 96-well plate, 37° C., 10 h
  MIC against S. marcescens: 25 µg/mL

B5: PRT863 (protein, listed as Homo sapiens)
chain: CFCNGHADQCIPVHGFRPVKAPGTFHMVHGKCMCKHNTAGSHCQHCAPLYNDRPWEAADGKTGAPNECRT
[1]
  MIC: 50 µg/mL
[2]
  MIC (μg/mL) E. coli BL21: 12.5 µg/mL
[3]
  MIC (μg/mL) P. aeruginosa: 25 µg/mL
[4]
  MIC (μg/mL) K. pneumonia: 50 µg/mL
[5]
  MIC (μg/mL) E. cloacae: 12.5 µg/mL
[6]
  MIC (μg/mL) A. hydrophila: 12.5 µg/mL
[7]
  MIC (μg/mL) C. diversus: 12.5 µg/mL
[8]
  MIC (μg/mL) M. catarrhalis: 12.5 µg/mL
[9]
  MIC (μg/mL) P. mirabilis: 12.5 µg/mL
[10]
  MIC (μg/mL) P. vulgaris: 25 µg/mL
[11]
  MIC (μg/mL) S. marcescens: 12.5 µg/mL

B6: PRT588 (protein, listed as Homo sapiens)
chain: CDCNGHSETCHFDPAVFAASQGAYGGVCDNCRDHTEGKNCERCQLHYFRNRRPGASIQETCIS
[1]
  MIC: 12.5 µg/mL
[2]; 96-well plate, 37° C., 10 h
  MIC against E. coli BL21: 25 µg/mL
[3]; 96-well plate, 37° C., 10 h
  MIC against P. aeruginosa: 50 µg/mL
[4]; 96-well plate, 37° C., 10 h
  MIC against K. pneumonia: 25 µg/mL
[5]; 96-well plate, 37° C., 10 h
  MIC against E. cloacae: 12.5 µg/mL
[6]; 96-well plate, 37° C., 10 h
  MIC against A. hydrophila: 25 µg/mL
[7]; 96-well plate, 37° C., 10 h
  MIC against C. diversus: 12.5 µg/mL
[8]; 96-well plate, 37° C., 10 h
  MIC against M. catarrhalis: 25 µg/mL
[9]; 96-well plate, 37° C., 10 h
  MIC against P. mirabilis: 12.5 µg/mL
[10]; 96-well plate, 37° C., 10 h
  MIC against P. vulgaris: 25 µg/mL
[11]; 96-well plate, 37° C., 10 h
  MIC against S. marcescens: 12.5 µg/mL
